Results published in the supplement of paper PMC10065799, “High-throughput profiling of sequence recognition by tyrosine kinases and SH2 domains using bacterial peptide display” (eLife, 2023).

How the values were obtained:
Fes = Fes (UniProt P07332); assay: phosphorylation enrichment, bacterial display (enrichment ratio); higher = better substrate or ligand; peptides without Tyr show the background
EPHB2 = EPHB2 (UniProt P29323); assay: as above
Fer (mouse) = assay: as above
Jak2 = Jak2 (UniProt O60674); assay: as above
Fyn = Fyn (UniProt P06241); assay: as above
Chain of Fyn (P06241 whole entry, looked up): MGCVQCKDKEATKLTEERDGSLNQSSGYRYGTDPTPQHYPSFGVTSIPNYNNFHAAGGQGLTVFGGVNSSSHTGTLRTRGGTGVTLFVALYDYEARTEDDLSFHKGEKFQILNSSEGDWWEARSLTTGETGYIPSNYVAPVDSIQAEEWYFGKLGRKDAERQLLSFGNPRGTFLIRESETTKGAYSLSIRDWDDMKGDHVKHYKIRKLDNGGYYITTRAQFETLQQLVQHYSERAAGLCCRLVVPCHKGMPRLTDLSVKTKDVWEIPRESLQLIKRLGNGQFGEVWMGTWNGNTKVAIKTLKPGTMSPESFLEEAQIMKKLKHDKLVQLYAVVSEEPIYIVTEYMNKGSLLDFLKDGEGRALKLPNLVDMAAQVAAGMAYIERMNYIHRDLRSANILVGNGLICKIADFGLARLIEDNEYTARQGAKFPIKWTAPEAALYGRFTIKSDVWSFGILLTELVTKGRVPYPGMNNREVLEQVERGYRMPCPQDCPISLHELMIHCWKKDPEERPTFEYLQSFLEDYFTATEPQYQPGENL

MERTK = MERTK (UniProt Q12866); assay: as above
Chain of MERTK (Q12866 whole entry, looked up): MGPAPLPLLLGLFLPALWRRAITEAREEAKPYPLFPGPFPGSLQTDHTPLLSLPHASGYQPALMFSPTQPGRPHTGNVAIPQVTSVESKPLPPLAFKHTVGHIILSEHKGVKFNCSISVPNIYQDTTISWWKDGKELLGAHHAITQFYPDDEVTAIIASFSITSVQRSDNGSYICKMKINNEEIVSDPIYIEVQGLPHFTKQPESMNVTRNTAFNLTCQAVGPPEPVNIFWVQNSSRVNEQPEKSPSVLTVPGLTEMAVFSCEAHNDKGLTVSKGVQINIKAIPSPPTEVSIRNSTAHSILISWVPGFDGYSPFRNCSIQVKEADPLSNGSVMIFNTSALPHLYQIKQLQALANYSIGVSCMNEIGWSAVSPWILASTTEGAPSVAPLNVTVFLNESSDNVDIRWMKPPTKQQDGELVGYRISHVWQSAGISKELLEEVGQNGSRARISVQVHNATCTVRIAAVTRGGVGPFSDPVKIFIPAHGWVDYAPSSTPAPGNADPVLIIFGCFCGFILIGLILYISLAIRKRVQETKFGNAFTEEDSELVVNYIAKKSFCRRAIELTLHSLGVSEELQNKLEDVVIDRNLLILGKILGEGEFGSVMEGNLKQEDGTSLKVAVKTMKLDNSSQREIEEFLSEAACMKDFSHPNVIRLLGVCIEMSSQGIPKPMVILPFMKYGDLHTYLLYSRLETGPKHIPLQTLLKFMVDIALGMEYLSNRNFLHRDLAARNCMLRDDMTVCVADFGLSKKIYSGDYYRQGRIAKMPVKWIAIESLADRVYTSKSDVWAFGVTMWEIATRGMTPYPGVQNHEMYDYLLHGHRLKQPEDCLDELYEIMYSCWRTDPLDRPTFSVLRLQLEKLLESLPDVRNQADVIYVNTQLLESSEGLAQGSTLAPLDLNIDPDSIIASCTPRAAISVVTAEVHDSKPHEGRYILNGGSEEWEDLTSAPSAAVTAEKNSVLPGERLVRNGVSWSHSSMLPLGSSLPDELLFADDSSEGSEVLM

EPHB1 = EPHB1 (UniProt P54762); assay: as above
c-Abl (mouse) = assay: as above
AncSZ = assay: as above
c-Src = assay: as above
FGFR1 = FGFR1 (UniProt P11362); assay: as above
Chain of FGFR1 (P11362 whole entry, looked up): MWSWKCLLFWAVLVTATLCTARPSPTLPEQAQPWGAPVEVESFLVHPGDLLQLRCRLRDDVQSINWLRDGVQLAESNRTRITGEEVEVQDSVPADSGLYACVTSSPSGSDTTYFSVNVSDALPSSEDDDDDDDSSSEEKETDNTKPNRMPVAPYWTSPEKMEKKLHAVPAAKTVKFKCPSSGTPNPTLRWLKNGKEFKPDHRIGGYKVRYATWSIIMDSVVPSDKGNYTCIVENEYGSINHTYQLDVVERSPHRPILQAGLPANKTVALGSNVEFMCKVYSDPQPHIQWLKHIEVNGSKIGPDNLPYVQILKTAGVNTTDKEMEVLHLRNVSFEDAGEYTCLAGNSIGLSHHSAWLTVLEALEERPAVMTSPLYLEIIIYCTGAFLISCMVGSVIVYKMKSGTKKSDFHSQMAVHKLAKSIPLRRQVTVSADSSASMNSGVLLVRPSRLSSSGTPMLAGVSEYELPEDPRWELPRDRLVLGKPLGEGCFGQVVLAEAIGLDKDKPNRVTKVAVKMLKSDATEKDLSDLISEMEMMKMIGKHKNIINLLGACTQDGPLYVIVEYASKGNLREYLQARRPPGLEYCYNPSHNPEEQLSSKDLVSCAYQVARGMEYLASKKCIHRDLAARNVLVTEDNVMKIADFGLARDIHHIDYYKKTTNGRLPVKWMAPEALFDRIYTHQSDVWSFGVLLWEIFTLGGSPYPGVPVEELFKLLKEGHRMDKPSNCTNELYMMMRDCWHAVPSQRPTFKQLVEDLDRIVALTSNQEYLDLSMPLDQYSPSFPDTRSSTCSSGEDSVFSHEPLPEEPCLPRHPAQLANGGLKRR

FGFR3 = FGFR3 (UniProt P22607); assay: as above
Chain of FGFR3 (P22607 whole entry, looked up): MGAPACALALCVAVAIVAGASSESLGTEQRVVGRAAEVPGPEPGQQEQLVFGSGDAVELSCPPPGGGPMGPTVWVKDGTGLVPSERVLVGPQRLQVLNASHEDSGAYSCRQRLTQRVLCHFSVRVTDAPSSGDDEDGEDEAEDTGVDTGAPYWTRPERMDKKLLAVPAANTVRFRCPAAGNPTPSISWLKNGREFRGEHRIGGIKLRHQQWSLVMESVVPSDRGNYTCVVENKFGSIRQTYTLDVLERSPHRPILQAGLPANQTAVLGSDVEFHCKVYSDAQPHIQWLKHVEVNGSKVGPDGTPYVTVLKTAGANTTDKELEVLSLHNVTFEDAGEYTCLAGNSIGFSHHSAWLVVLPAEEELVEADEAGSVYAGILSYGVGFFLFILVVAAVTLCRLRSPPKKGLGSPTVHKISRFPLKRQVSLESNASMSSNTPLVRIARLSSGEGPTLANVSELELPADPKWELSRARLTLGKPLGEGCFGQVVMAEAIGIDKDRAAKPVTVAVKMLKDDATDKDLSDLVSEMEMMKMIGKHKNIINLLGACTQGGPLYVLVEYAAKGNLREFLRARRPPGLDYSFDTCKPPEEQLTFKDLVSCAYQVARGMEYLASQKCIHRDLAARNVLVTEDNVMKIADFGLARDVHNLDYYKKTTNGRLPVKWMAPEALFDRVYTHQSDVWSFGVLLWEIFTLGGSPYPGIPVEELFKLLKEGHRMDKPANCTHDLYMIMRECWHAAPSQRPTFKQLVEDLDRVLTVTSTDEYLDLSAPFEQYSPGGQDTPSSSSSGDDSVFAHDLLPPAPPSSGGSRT

Hck = Hck (UniProt P08631); assay: as above
Chain of Hck (P08631 whole entry, looked up): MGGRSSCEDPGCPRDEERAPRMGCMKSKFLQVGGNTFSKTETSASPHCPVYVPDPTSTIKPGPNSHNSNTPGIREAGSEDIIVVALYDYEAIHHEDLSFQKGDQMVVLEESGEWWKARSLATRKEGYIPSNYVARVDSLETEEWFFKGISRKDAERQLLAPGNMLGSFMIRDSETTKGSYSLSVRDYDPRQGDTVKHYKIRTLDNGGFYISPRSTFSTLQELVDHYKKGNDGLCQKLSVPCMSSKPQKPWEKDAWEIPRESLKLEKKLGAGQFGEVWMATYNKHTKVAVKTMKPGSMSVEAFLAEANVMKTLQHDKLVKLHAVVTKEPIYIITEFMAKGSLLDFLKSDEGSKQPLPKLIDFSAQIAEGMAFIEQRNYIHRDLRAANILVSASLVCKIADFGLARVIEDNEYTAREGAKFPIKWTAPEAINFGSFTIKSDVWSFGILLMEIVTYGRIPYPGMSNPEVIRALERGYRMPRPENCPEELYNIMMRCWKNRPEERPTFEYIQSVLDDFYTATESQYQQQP

SHP2-C SH2 = assay: SH2 binding enrichment of the phosphorylated peptide, bacterial display (enrichment ratio); higher = better substrate or ligand; peptides without Tyr show the background
Grb2 SH2 = Grb2 SH2 (UniProt P62993); assay: as above
Chain of Grb2 SH2 (P62993 whole entry, looked up): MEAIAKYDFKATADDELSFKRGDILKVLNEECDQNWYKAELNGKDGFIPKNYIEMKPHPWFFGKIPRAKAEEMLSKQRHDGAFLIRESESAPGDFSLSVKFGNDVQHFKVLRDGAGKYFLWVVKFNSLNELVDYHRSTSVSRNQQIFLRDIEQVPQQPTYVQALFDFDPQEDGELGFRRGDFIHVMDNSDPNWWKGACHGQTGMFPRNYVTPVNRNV

c-Src SH2 = assay: as above
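For SH2 binding enrichment of the phosphorylated peptide, bacterial display in this document: peptide library displayed on the E. coli surface as eCPX fusions, selected cells deep-sequenced, score is each peptide's frequency after selection divided by its frequency in the input.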
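For phosphorylation enrichment, bacterial display in this document: 11-residue human phosphosite peptides and single-mutation variants displayed on the E. coli surface, counted by deep sequencing, each peptide's frequency after selection divided by its frequency in the unselected input library; frequency after pTyr selection over input frequency; kinase dosed for 20-30% of maximal phosphorylation in three min.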

Chain of Fes (P07332 whole entry, looked up): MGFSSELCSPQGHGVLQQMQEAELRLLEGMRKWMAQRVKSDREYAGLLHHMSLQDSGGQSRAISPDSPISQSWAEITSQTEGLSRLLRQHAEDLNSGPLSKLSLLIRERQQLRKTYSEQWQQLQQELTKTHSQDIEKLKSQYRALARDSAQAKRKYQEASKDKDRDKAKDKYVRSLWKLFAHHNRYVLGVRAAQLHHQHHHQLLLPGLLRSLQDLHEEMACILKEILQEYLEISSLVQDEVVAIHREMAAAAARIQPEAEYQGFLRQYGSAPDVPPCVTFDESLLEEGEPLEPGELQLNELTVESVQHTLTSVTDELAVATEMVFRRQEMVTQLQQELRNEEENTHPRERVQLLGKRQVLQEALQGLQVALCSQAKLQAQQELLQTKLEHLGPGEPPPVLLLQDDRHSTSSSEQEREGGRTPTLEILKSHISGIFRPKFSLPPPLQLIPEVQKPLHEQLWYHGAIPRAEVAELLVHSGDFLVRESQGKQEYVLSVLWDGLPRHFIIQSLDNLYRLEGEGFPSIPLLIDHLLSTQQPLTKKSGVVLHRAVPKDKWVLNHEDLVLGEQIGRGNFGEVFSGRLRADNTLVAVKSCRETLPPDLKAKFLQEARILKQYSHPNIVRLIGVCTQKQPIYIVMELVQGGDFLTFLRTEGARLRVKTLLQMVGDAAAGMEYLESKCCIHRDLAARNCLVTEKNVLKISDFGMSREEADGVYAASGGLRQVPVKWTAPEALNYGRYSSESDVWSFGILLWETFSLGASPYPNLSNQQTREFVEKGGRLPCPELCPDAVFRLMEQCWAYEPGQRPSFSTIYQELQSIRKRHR

| Sequence | phosphorylation enrichment (Fes) | phosphorylation enrichment (EPHB2) | phosphorylation enrichment (Fer (mouse)) | phosphorylation enrichment (Jak2) | phosphorylation enrichment (Fyn) | phosphorylation enrichment (MERTK) | phosphorylation enrichment (EPHB1) | phosphorylation enrichment (c-Abl (mouse)) | phosphorylation enrichment (AncSZ) | phosphorylation enrichment (c-Src) | phosphorylation enrichment (FGFR1) | phosphorylation enrichment (FGFR3) | phosphorylation enrichment (Hck) | SH2 binding enrichment (SHP2-C SH2) | SH2 binding enrichment (Grb2 SH2) | SH2 binding enrichment (c-Src SH2) |
| --- | --- | --- | --- | --- | --- | --- | --- | --- | --- | --- | --- | --- | --- | --- | --- | --- |
| GFRVFYTPDSR [PTPRF_Y451_YF] | 1.19 | 0.448 | 0.462 | 1.03 | 0.468 | 0.37 | 0.562 | 0.612 | 0.962 | 0.449 | 0.52 | 0.64 | 0.564 | 0.861 | 1.17 | 0.598 |
| ESLSSYWESAK [APOC2_Y47] | 1.01 | 0.576 | 0.354 | 0.888 | 0.414 | 0.381 | 0.527 | 0.584 | 0.84 | 0.392 | 0.63 | 0.692 | 0.464 | 0.753 | 0.889 | 0.713 |
| EKDSNYCLCRT [ASIC2_Y357] | 0.883 | 0.634 | 0.442 | 0.763 | 0.569 | 0.601 | 0.551 | 0.573 | 0.772 | 0.506 | 0.556 | 0.605 | 0.513 | 0.789 | 0.976 | 0.778 |
| QPSPSYDSSRG [TCF12_Y70] | 0.661 | 0.626 | 0.457 | 0.455 | 0.623 | 0.414 | 0.534 | 0.521 | 0.68 | 0.482 | 0.561 | 0.557 | 0.553 | 0.733 | 0.773 | 0.393 |
| SNSAAYSGSVA [PDLIM5_Y382_T381A] | 0.566 | 0.393 | 0.343 | 0.636 | 0.404 | 0.381 | 0.398 | 0.697 | 0.512 | 0.409 | 0.33 | 0.421 | 0.354 | 0.559 | 0.774 | 0.481 |
| PIFEGYALPHA [ACTA1_Y171_YF] | 0.778 | 0.574 | 0.49 | 0.717 | 0.536 | 0.807 | 0.546 | 2.44 | 0.82 | 0.562 | 0.536 | 0.665 | 0.541 | 0.769 | 0.877 | 4.62 |
| YPQARYHWLVL [APTX_Y214_K211Q] | 1.14 | 0.586 | 0.612 | 0.98 | 0.449 | 1.05 | 0.72 | 0.744 | 0.937 | 0.411 | 1.96 | 1.48 | 0.531 | 1.43 | 1.27 | 0.98 |
| PVQAAYKKVVA [HBB_Y131_Q132K] | 0.762 | 0.278 | 0.226 | 0.486 | 0.506 | 0.578 | 0.545 | 0.73 | 0.645 | 0.687 | 0.534 | 0.485 | 0.479 | 0.613 | 0.834 | 0.524 |
| AKNKDYMSFIR [GNE_Y197_I200F] | 0.646 | 0.648 | 0.34 | 0.647 | 0.61 | 0.465 | 0.812 | 0.661 | 0.606 | 0.972 | 0.478 | 0.478 | 0.946 | 1.23 | 1.09 | 0.754 |
| CGTPDYIDPEI [PRKCG_Y521_A523D] | 1.41 | 0.725 | 0.531 | 1.31 | 0.581 | 0.454 | 1.1 | 0.813 | 1.58 | 0.481 | 2.28 | 1.85 | 0.7 | 0.52 | 0.814 | 0.461 |
| LDFNEYVRDLN [HPRT1_Y198_F199V_YF] | 1.47 | 0.665 | 0.634 | 1.31 | 0.674 | 0.556 | 0.804 | 0.911 | 1.69 | 0.567 | 0.532 | 0.628 | 0.707 | 0.795 | 1.13 | 0.617 |
| GVKLTYGDAQS [SLC28A1_Y404_N409S] | 0.646 | 0.34 | 0.373 | 0.46 | 0.426 | 0.335 | 0.472 | 0.52 | 0.599 | 0.349 | 0.429 | 0.453 | 0.456 | 0.646 | 0.798 | 0.467 |
| ETKGDYEKILV [ANXA1_Y335] | 1.17 | 0.625 | 1.04 | 1.01 | 0.506 | 0.454 | 0.713 | 0.82 | 1.16 | 0.523 | 0.548 | 0.682 | 0.651 | 0.54 | 0.815 | 1.08 |
| NFFDTYIKTCL [IQGAP2_Y1445_YF] | 1.34 | 0.731 | 0.555 | 1.34 | 0.456 | 0.496 | 0.736 | 0.843 | 1.3 | 0.54 | 0.508 | 0.815 | 0.587 | 0.752 | 0.85 | 0.528 |
| MHRRQYELLGG [GNAS_Y391_L388R] | 0.715 | 0.426 | 0.307 | 0.48 | 0.371 | 0.391 | 0.28 | 0.416 | 0.577 | 0.336 | 0.5 | 0.425 | 0.409 | 0.349 | 0.601 | 2.1 |
| EQKKYSNAMKK [SCN5A_Y1495_Y1495S] | 0.53 | 0.333 | 0.247 | 0.437 | 0.322 | 0.29 | 0.326 | 0.469 | 0.498 | 0.262 | 0.304 | 0.459 | 0.467 | 0.627 | 0.868 | 0.646 |
| WHYTFYNELRV [ACTC1_Y93_H90Y] | 1.42 | 0.678 | 0.651 | 1.27 | 0.461 | 0.869 | 1.31 | 0.979 | 1.39 | 0.619 | 0.686 | 1.03 | 0.67 | 0.779 | 0.992 | 0.572 |
| VATSWYRSPEL [CDKL5_Y177_R175S] | 0.656 | 0.435 | 0.409 | 0.548 | 0.466 | 0.412 | 0.417 | 0.427 | 0.768 | 0.344 | 0.553 | 0.545 | 0.469 | 0.77 | 0.827 | 0.549 |
| RAMPVYEKAEH [TP63_Y231_K232E] | 0.598 | 0.834 | 1.79 | 1.03 | 0.867 | 0.453 | 0.654 | 0.576 | 0.664 | 0.776 | 0.493 | 0.545 | 1.02 | 0.574 | 1.07 | 2.1 |
| RGKLFYQEVPA [METTL11B_Y76_A72G] | 1.05 | 0.777 | 0.719 | 0.649 | 0.544 | 3.21 | 1.48 | 0.503 | 0.844 | 0.564 | 1.37 | 1.29 | 0.853 | 0.804 | 0.956 | 1.11 |
| SISYDYCRVPM [BST2_Y8_T4I] | 1.17 | 9.95 | 3.87 | 3.05 | 0.965 | 2.98 | 11 | 1.03 | 3.91 | 1.17 | 7.84 | 5.46 | 2.62 | 0.705 | 1.01 | 0.831 |
| ECKLRYSRKEG [PTPN11_Y263_L262R] | 0.606 | 0.533 | 0.376 | 0.378 | 0.52 | 0.523 | 0.457 | 0.452 | 0.527 | 0.423 | 0.484 | 0.53 | 0.503 | 0.679 | 0.746 | 0.453 |
| IMAYFYMCDRA [CASD1_Y382] | 1.45 | 0.641 | 0.614 | 1.46 | 0.421 | 0.494 | 0.803 | 1 | 1.11 | 0.487 | 1.09 | 1.23 | 0.401 | 1.02 | 1.14 | 0.87 |
| ESLRSYDVMDV [KCNQ2_Y562_P561S] | 1.28 | 0.714 | 0.555 | 0.921 | 0.556 | 0.523 | 0.663 | 0.817 | 1.03 | 0.509 | 0.581 | 0.993 | 0.616 | 0.473 | 0.712 | 9.05 |
| VNFGAYINDFK [GLB1_Y488_YF] | 0.997 | 0.568 | 0.393 | 0.83 | 0.498 | 0.352 | 0.545 | 0.558 | 0.909 | 0.369 | 0.459 | 0.621 | 0.441 | 0.551 | 1.74 | 0.625 |
| RSFLSYFTSHV [NEFL_Y442_P440L_YF] | 1.8 | 0.743 | 0.677 | 1.1 | 0.642 | 0.826 | 0.759 | 1.05 | 1.54 | 0.879 | 0.752 | 1 | 0.915 | 1.3 | 0.893 | 0.697 |
| QRALLYEDTLY [UNC13D_Y56_A59T] | 2.2 | 12.5 | 12.1 | 0.942 | 3.98 | 6 | 15.2 | 0.819 | 1.54 | 3.24 | 0.648 | 1.02 | 4.67 | 0.537 | 0.62 | 0.885 |
| EAEPYYRSLRD [NPHS1_Y1139] | 0.911 | 0.594 | 0.428 | 0.785 | 0.479 | 0.467 | 0.487 | 0.709 | 0.929 | 0.601 | 0.505 | 0.585 | 0.521 | 0.791 | 0.765 | 0.775 |
| RYVTRSIYNRE [HLA-DQB1_Y62_Y62S] | 1.1 | 0.389 | 0.495 | 1.1 | 0.553 | 0.601 | 0.226 | 0.735 | 0.772 | 0.705 | 0.622 | 0.327 | 0.682 | 0.94 | 0.802 | 0.543 |
